Assay results published in patent US20200237800.

Columns and labels:
Test in all cases: pulldown
Conditions in all cases: sense/antisense normalized AUC more than 2-fold
[1] = molecular target: ACLY (ATP-citrate synthase) (Homo sapiens) (UniProt P53396)
[2] = molecular target: FLG2 (Filaggrin-2) (Homo sapiens) (UniProt Q5D862)
[3] = molecular target: T1, SFPQ (splicing factor, proline- and glutamine-rich) (Homo sapiens) (UniProt P23246)
T1 sequence: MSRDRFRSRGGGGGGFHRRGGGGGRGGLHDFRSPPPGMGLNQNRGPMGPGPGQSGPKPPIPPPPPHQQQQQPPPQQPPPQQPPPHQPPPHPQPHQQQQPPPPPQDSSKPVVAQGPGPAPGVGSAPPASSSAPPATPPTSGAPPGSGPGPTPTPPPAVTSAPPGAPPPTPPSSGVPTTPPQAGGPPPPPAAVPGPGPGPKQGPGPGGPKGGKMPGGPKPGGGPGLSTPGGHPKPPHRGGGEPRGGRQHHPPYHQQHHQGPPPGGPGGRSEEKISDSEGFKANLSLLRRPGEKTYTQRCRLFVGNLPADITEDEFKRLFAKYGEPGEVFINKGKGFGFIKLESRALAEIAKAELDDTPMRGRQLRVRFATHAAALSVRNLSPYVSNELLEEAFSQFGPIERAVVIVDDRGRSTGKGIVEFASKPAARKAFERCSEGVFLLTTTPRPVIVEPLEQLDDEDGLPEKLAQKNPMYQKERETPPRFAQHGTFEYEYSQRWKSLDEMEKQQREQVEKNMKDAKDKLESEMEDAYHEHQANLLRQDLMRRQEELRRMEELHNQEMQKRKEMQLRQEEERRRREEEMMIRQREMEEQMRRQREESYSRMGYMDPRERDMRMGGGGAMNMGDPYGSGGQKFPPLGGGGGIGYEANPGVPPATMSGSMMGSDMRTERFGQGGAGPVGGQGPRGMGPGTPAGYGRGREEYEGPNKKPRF

Measured: binding signal (fraction of sense)

Chain of ACLY (ATP-citrate synthase) (Homo sapiens) (P53396 whole entry): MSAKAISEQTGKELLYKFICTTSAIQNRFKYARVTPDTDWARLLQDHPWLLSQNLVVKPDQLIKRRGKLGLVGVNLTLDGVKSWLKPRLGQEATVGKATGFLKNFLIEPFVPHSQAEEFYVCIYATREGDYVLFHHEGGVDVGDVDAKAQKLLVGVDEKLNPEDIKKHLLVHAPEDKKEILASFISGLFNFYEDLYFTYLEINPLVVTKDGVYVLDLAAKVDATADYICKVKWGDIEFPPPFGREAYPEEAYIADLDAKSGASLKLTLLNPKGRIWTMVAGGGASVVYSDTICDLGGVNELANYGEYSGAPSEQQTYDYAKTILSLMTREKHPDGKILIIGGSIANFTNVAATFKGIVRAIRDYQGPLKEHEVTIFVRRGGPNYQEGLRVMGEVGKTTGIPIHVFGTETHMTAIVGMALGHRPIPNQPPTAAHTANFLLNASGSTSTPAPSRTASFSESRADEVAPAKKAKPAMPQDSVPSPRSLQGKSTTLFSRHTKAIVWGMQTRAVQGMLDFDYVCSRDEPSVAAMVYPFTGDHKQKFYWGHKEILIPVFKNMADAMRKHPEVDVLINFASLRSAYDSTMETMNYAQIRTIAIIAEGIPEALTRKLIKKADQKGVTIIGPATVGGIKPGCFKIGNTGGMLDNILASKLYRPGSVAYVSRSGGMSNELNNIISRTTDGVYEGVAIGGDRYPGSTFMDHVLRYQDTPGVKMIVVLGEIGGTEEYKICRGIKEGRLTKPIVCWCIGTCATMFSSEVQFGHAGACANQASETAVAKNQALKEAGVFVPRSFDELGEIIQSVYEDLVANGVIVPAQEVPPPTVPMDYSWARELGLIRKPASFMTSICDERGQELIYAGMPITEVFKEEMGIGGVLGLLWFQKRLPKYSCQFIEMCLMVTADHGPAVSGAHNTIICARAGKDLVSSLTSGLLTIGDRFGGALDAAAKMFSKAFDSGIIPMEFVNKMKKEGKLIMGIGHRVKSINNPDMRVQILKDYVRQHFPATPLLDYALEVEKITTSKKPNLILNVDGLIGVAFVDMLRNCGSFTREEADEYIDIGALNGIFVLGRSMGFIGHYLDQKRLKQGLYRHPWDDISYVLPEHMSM
Chain of FLG2 (Filaggrin-2) (Homo sapiens) (Q5D862 whole entry): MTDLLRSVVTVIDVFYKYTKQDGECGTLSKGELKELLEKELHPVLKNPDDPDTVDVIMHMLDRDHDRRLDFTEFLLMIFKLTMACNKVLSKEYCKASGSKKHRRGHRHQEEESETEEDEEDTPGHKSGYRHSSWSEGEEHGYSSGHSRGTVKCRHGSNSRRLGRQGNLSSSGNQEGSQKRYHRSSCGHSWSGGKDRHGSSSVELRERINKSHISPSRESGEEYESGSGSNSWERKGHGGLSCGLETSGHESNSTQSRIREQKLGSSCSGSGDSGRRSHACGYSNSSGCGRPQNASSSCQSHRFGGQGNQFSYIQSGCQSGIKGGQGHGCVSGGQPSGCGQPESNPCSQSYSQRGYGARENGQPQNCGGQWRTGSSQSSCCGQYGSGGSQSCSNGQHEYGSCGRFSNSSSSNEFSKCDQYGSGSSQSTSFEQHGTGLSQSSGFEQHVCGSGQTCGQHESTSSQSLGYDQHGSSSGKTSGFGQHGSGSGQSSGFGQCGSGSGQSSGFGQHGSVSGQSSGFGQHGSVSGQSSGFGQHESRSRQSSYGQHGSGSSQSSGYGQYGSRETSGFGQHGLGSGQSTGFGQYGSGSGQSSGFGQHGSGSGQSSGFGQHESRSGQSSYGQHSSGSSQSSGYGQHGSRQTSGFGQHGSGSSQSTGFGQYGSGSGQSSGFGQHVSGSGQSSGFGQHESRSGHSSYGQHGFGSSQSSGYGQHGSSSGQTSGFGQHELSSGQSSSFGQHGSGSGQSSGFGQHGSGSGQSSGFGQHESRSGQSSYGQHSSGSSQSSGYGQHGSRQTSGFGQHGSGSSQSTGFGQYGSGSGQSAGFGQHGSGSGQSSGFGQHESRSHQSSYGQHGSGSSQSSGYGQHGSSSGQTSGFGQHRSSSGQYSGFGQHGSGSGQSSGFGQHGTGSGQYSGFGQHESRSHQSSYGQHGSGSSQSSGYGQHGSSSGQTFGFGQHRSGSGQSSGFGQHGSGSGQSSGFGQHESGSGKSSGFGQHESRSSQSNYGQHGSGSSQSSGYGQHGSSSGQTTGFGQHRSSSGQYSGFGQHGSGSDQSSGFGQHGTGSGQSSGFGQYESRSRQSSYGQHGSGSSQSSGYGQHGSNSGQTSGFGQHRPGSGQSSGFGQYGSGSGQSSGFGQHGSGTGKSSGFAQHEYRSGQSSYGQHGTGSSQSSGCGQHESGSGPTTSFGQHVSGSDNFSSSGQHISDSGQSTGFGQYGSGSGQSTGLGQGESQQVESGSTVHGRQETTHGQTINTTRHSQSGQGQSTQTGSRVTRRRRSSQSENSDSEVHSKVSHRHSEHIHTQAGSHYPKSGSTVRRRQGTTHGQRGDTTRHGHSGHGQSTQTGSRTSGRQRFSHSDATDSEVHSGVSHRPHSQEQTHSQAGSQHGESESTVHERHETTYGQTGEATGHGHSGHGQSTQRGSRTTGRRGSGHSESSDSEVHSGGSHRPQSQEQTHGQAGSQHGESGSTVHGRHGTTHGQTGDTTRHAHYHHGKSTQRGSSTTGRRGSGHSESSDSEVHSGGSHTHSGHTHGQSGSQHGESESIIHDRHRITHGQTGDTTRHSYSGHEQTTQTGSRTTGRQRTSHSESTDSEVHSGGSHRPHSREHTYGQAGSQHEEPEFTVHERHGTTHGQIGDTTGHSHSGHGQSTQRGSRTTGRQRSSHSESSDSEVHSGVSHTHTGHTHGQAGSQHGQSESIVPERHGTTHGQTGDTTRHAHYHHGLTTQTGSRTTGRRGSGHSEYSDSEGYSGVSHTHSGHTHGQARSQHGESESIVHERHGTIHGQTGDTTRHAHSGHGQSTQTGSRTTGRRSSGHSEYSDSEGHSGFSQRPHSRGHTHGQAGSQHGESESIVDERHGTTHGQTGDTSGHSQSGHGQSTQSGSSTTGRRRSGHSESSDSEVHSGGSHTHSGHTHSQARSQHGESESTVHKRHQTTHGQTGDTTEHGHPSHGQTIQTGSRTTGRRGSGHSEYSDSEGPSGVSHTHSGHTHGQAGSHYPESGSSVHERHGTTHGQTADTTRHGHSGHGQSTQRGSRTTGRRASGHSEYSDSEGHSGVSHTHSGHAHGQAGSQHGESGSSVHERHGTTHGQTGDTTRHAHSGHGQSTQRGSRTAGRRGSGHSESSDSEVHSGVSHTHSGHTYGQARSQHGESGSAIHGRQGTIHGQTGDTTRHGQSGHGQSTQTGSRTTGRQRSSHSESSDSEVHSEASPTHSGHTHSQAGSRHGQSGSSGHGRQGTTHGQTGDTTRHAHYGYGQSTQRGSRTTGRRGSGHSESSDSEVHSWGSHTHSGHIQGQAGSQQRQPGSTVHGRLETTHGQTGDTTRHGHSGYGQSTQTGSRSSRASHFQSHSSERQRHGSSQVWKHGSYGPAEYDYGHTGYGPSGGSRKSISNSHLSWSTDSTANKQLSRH

lnc-FAM164A1 antisense RNA
< 0.5: [1] | [2] | [3]
